Assays:
[1] = target: AbHeR K216Q (Actinobacteria bacterium IMCC26103)
[2] = target: Actinobacteria bacterium IMCC26103 heliorhodopsin (AbHeR) wild type (Actinobacteria bacterium IMCC26103)
[3] = target: Actinobacteria bacterium IMCC26103 heliorhodopsin (AbHeR) wild type (Actinobacteria bacterium IMCC26103); remark: listed apart in the source
[4] = target: Actinobacteria bacterium IMCC26103 heliorhodopsin (AbHeR) wild type (Actinobacteria bacterium IMCC26103); experiment: ITC; purified AbGS with AbHeR in inverted membrane vesicles (IMV) of E. coli C43 (DE3), no detergent; text: IMVs injected into AbGS, legend: AbGS added to IMVs; in the absence of light
[5] = target: AbHeR K148Q (Actinobacteria bacterium IMCC26103); experiment: ITC; AbGS injected into purified AbHeR (WT or mutant) at 25°C, MicroCal ITC200; both in buffer SD (150 mM NaCl, 50 mM Tris-HCl pH 7.0, 0.02% DDM); in the absence of light
[6] = target: AbHeR E151Q (Actinobacteria bacterium IMCC26103); experiment: as above
[7] = target: AbHeR K216Q (Actinobacteria bacterium IMCC26103); experiment: as above
[8] = target: Actinobacteria bacterium IMCC26103 heliorhodopsin (AbHeR) wild type (Actinobacteria bacterium IMCC26103); experiment: as above
[9] = target: AbHeR D223N (Actinobacteria bacterium IMCC26103); experiment: as above
[10] = system: Glu105; experiment: UV-vis; conditions: Not stated for the titration. The purification buffer SD contains 150 mM NaCl., Not stated for the titration. The purified protein was in buffer SD: 150 mM NaCl, 50 mM Tris-HCl pH 7.0, 0.02% DDM. The protocol is referred to ref 8., detergent-solubilised, retinal-bound AbHeR WT. Light adaptation is not stated.

Actinobacteria bacterium IMCC26103 heliorhodopsin (AbHeR) wild type (Actinobacteria bacterium IMCC26103), sequence (main, as listed by the source): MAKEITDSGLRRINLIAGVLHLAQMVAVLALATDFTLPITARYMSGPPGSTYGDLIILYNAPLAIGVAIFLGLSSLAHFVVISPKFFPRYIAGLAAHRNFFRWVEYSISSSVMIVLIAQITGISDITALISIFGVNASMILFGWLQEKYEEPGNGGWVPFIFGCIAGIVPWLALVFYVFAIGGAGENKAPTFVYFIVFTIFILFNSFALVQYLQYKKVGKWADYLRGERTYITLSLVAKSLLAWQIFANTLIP

Actinobacteria bacterium IMCC26103 glutamine synthetase (AbGS) (enzyme)
kcat/Km of AbGS (Glu, Mn2+-supported biosynthetic reaction, 37°C) with AbHeR K216Q IMV, dark; AbGS alone 5.42 [1]: 5.45 M⁻¹ s⁻¹
kcat/Km of AbGS (Glu, Mn2+-supported biosynthetic reaction, 37°C) with AbHeR K216Q IMV, light (532 nm); AbGS alone 5.42 [1]: 6.91 M⁻¹ s⁻¹
kcat/Km of AbGS (Glu, Mn2+-supported biosynthetic reaction, 37°C) with AbHeR WT IMV, dark; AbGS alone 5.42 [2]: 8.01 M⁻¹ s⁻¹
kcat/Km of AbGS (Glu, Mn2+-supported biosynthetic reaction, 37°C) with AbHeR WT IMV, light (532 nm); AbGS alone 5.42 [2]: 12.2 M⁻¹ s⁻¹
amount of product (Pi) of the AbGS biosynthetic reaction with AbHeR WT IMV at 150 min, in the absence of light, against AbHeR K216Q IMV [3]: 1.09 times
amount of product (Pi) of the AbGS biosynthetic reaction with AbHeR WT IMV at 150 min, in the presence of light against the absence of light [3]: 1.1 times
amount of product (Pi) of the AbGS biosynthetic reaction with AbHeR WT IMV at 150 min, in the presence of light, against AbHeR K216Q IMV [3]: 1.2 times
Kd [4]: 6.06 µM
Kd [5]: 137 µM
dH [5]: 5.31 kcal/mol
Kd [6]: 30 µM
dH [6]: 2.36 kcal/mol
Kd [7]: 3680 µM
Kd [8]: 100 µM
dH [8]: 2.07 kcal/mol
Kd [9]: 44 µM
dH [9]: 1.14 kcal/mol

Heliorhodopsin AbHeR (Actinobacteria bacterium IMCC26103)
pKa [10]: 2.84 (± 1.07)
